# Measured values as given in the supplement of paper PMC9112550, “Optimization of the antimicrobial peptide Bac7 by deep mutational scanning” (BMC Biology, 2022).
# System: Escherichia coli TOP10
# Test: shrunken log2 fold change of peptide-encoding DNA abundance (4.5 h post-induction vs induction); higher = less antimicrobial activity (less host growth inhibition)
# Settings: time post-induction: 4.5 h; library: site-saturation at positions 5, 18, 19, 20
# 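Note: peptides expressed intracellularly from a pBAD plasmid library in pooled LB shake-flask culture, induced with 0.3% L-arabinose, DNA abundance read by NGS, three biological replicates, DESeq2 with apeglm shrinkage.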
row,Sequence,shrunken log2 fold change
1,RRIRDRPPRLPRPRPRPRYYPRP,-0.175
2,RRIRSRPPRLPRPRPRPSQHPRP,-0.24
3,RRIRYRPPRLPRPRPRPGLFPRP,-0.0365
4,RRIRFRPPRLPRPRPRPICCPRP,-0.134
5,RRIRSRPPRLPRPRPRPDMNPRP,0.0168
6,RRIRNRPPRLPRPRPRPNSYPRP,-0.299
7,RRIRRRPPRLPRPRPRPTTRPRP,0.941
8,RRIRDRPPRLPRPRPRPCIFPRP,0.168
9,RRIRYRPPRLPRPRPRPSQFPRP,-0.257
10,RRIRVRPPRLPRPRPRPQDLPRP,-0.0193
11,RRIRFRPPRLPRPRPRPRYGPRP,-0.299
12,RRIRERPPRLPRPRPRPDPHPRP,-0.011
13,RRIRDRPPRLPRPRPRPAWHPRP,0.2
14,RRIRIRPPRLPRPRPRPCYAPRP,-0.68
15,RRIRLRPPRLPRPRPRPDPPPRP,0.337
16,RRIRGRPPRLPRPRPRPVEPPRP,0.79
17,RRIRMRPPRLPRPRPRPVYKPRP,-0.014
18,RRIRYRPPRLPRPRPRPVCRPRP,-0.0607
19,RRIRDRPPRLPRPRPRPCGRPRP,0.147
20,RRIRCRPPRLPRPRPRPIWVPRP,-0.0515
21,RRIRHRPPRLPRPRPRPVEFPRP,-0.178
22,RRIRWRPPRLPRPRPRPRNQPRP,0.145
23,RRIRQRPPRLPRPRPRPFYRPRP,-0.0149
24,RRIRVRPPRLPRPRPRPHHPPRP,-0.131
25,RRIRGRPPRLPRPRPRPCACPRP,0.225

row,Sequence,shrunken log2 fold change
1,RRIRGRPPRLPRPRPRPQEEPRP,0.0943
2,RRIRARPPRLPRPRPRPWSWPRP,0.109
3,RRIRFRPPRLPRPRPRPNWWPRP,-0.0248
4,RRIRPRPPRLPRPRPRPALCPRP,0.371
5,RRIRIRPPRLPRPRPRPHYKPRP,-0.756
6,RRIRPRPPRLPRPRPRPGPLPRP,0.193
7,RRIRVRPPRLPRPRPRPCHGPRP,0.000197
8,RRIRERPPRLPRPRPRPWNAPRP,0.0455
9,RRIRFRPPRLPRPRPRPVGNPRP,0.294
10,RRIRCRPPRLPRPRPRPWSEPRP,-0.0285
11,RRIRMRPPRLPRPRPRPLGAPRP,1.25
12,RRIRERPPRLPRPRPRPVWWPRP,0.149
13,RRIRWRPPRLPRPRPRPRPWPRP,0.289
14,RRIRDRPPRLPRPRPRPPVFPRP,1.59
15,RRIRHRPPRLPRPRPRPMFYPRP,-0.446
16,RRIRVRPPRLPRPRPRPYWRPRP,-0.323
17,RRIRRRPPRLPRPRPRPPGYPRP,1.22
18,RRIRARPPRLPRPRPRPADFPRP,0.119
19,RRIRFRPPRLPRPRPRPNNLPRP,-0.12
20,RRIRTRPPRLPRPRPRPMNYPRP,-0.949
21,RRIRPRPPRLPRPRPRPWIWPRP,-0.186
22,RRIRTRPPRLPRPRPRPEIKPRP,-0.0117
23,RRIRHRPPRLPRPRPRPEIRPRP,0.0924
24,RRIRNRPPRLPRPRPRPIREPRP,-0.0204
25,RRIRHRPPRLPRPRPRPPQPPRP,0.216

row,Sequence,shrunken log2 fold change
1,RRIRGRPPRLPRPRPRPVPHPRP,-0.0133
2,RRIRNRPPRLPRPRPRPYNSPRP,-1.61
3,RRIRVRPPRLPRPRPRPWDGPRP,-0.00294
4,RRIRCRPPRLPRPRPRPCIPPRP,-0.01
5,RRIRMRPPRLPRPRPRPMWGPRP,0.285
6,RRIRDRPPRLPRPRPRPSCFPRP,0.126
7,RRIRSRPPRLPRPRPRPLKGPRP,0.0623
8,RRIRWRPPRLPRPRPRPDVVPRP,0.0719
9,RRIRMRPPRLPRPRPRPDIWPRP,1.41
10,RRIRPRPPRLPRPRPRPCSAPRP,0.199
11,RRIRWRPPRLPRPRPRPCSKPRP,-0.0575
12,RRIRHRPPRLPRPRPRPPPWPRP,0.446
13,RRIRLRPPRLPRPRPRPKIHPRP,-0.312
14,RRIRVRPPRLPRPRPRPPVRPRP,0.267
15,RRIRMRPPRLPRPRPRPRSVPRP,0.871
16,RRIRSRPPRLPRPRPRPSKGPRP,-0.142
17,RRIRKRPPRLPRPRPRPHTDPRP,-0.0857
18,RRIRIRPPRLPRPRPRPTDHPRP,-0.368
19,RRIRFRPPRLPRPRPRPNGYPRP,-0.3
20,RRIRTRPPRLPRPRPRPTENPRP,-0.293
21,RRIRDRPPRLPRPRPRPLFEPRP,0.7
22,RRIRGRPPRLPRPRPRPHKRPRP,0.34
23,RRIRCRPPRLPRPRPRPLKGPRP,-0.204
24,RRIRQRPPRLPRPRPRPECYPRP,0.0583
25,RRIRERPPRLPRPRPRPSMNPRP,-0.573
